Abundance fitness data for 47 variants are collected here from the Human Domainome abundance scans (Beltran et al. 2025).

± gives the uncertainty stated by the source.

The labels stand for the following.
B1: POU domain, class 3, transcription factor 3, residues 408 to 463; numbered along this chain, P20264 (parent)
chain: KKRTSIEVSVKGALESHFLKCPKPSAQEITNLADSLQLEKEVVRVWFCNRRQKEKR

The data set covers variants of B1. In words: abundance fitness (aPCA) (normalised: wild type 0, dead -1); higher = more abundant; growth selection in yeast, the domain comes from the species named. The settings on record: Homo sapiens.
In the case of KKRTSIEVSVKGALESHFLKKPKPSAQEITNLADSLQLEKEVVRVWFCNRRQKEKR, the abundance fitness is -0.408 ± 0.12.

As to KKRTSIEVSVKGALESHFLKVPKPSAQEITNLADSLQLEKEVVRVWFCNRRQKEKR, the abundance fitness is -0.249 ± 0.069.

Regarding KKRTSIEVSVKGALESHFLKYPKPSAQEITNLADSLQLEKEVVRVWFCNRRQKEKR, the abundance fitness was -0.383 ± 0.12.

In the case of KKRTSIEVSVKGALESHFLKIPKPSAQEITNLADSLQLEKEVVRVWFCNRRQKEKR, the abundance fitness was -0.73 ± 0.24.

With KKRTSIEVSVKGALESHFLKHPKPSAQEITNLADSLQLEKEVVRVWFCNRRQKEKR, the abundance fitness was -0.031 ± 0.19.

Take KKRTSIEVSVKGALESHFLKGPKPSAQEITNLADSLQLEKEVVRVWFCNRRQKEKR: the abundance fitness is -0.468 ± 0.062.

In the case of KKRTSIEVSVKGALESHFLKMPKPSAQEITNLADSLQLEKEVVRVWFCNRRQKEKR, the abundance fitness was -0.314 ± 0.1.

Consider KKRTSIEVSVKGALESHFLKFPKPSAQEITNLADSLQLEKEVVRVWFCNRRQKEKR, for which the abundance fitness is -0.407 ± 0.16.

With KKRTSIEVSVKGALESHFLKDPKPSAQEITNLADSLQLEKEVVRVWFCNRRQKEKR, the abundance fitness was -0.094 ± 0.12.

Take KKRTSIEVSVKGALESHFLTCPKPSAQEITNLADSLQLEKEVVRVWFCNRRQKEKR: the abundance fitness is -0.256 ± 0.1.

For KKRTSIEVSVKGALESHFLHCPKPSAQEITNLADSLQLEKEVVRVWFCNRRQKEKR, the abundance fitness was -0.279 ± 0.14.

For KKRTSIEVSVKGALESHFLRCPKPSAQEITNLADSLQLEKEVVRVWFCNRRQKEKR, the abundance fitness is -0.05 ± 0.075.

As to KKRTSIEVSVKGALESHFLFCPKPSAQEITNLADSLQLEKEVVRVWFCNRRQKEKR, the abundance fitness is -0.438 ± 0.12.

Regarding KKRTSIEVSVKGALESHFLQCPKPSAQEITNLADSLQLEKEVVRVWFCNRRQKEKR, the abundance fitness stood at 0.054 ± 0.14.

As for KKRTSIEVSVKGALESHFLMCPKPSAQEITNLADSLQLEKEVVRVWFCNRRQKEKR, the abundance fitness was -0.187 ± 0.12.

As for KKRTSIEVSVKGALESHFLVCPKPSAQEITNLADSLQLEKEVVRVWFCNRRQKEKR, the abundance fitness is -0.127 ± 0.089.

In the case of KKRTSIEVSVKGALESHFLDCPKPSAQEITNLADSLQLEKEVVRVWFCNRRQKEKR, the abundance fitness is -0.197 ± 0.15.

As for KKRTSIEVSVKGALESHFLSCPKPSAQEITNLADSLQLEKEVVRVWFCNRRQKEKR, the abundance fitness is -0.233 ± 0.078.

For KKRTSIEVSVKGALESHFLCCPKPSAQEITNLADSLQLEKEVVRVWFCNRRQKEKR, the abundance fitness was -0.465 ± 0.14.

Regarding KKRTSIEVSVKGALESHFLPCPKPSAQEITNLADSLQLEKEVVRVWFCNRRQKEKR, the abundance fitness is -0.912 ± 0.17.

As to KKRTSIEVSVKGALESHFLWCPKPSAQEITNLADSLQLEKEVVRVWFCNRRQKEKR, the abundance fitness is -0.421 ± 0.097.

KKRTSIEVSVKGALESHFLNCPKPSAQEITNLADSLQLEKEVVRVWFCNRRQKEKR: the abundance fitness was -0.109 ± 0.11.

On to KKRTSIEVSVKGALESHFLYCPKPSAQEITNLADSLQLEKEVVRVWFCNRRQKEKR, for which the abundance fitness is -0.335 ± 0.11.

KKRTSIEVSVKGALESHFLLCPKPSAQEITNLADSLQLEKEVVRVWFCNRRQKEKR: the abundance fitness is -0.195 ± 0.072.

As for KKRTSIEVSVKGALESHFLICPKPSAQEITNLADSLQLEKEVVRVWFCNRRQKEKR, the abundance fitness is -0.191 ± 0.1.

For the variant KKRTSIEVSVKGALESHFLACPKPSAQEITNLADSLQLEKEVVRVWFCNRRQKEKR, the abundance fitness is -0.218 ± 0.079.

As for KKRTSIEVSVKGALESHFLGCPKPSAQEITNLADSLQLEKEVVRVWFCNRRQKEKR, the abundance fitness is -0.366 ± 0.079.

As to KKRTSIEVSVKGALESHFLKCAKPSAQEITNLADSLQLEKEVVRVWFCNRRQKEKR, the abundance fitness was -0.121 ± 0.2.

Regarding KKRTSIEVSVKGALESHFLKCHKPSAQEITNLADSLQLEKEVVRVWFCNRRQKEKR, the abundance fitness is -0.448 ± 0.36.

On to KKRTSIEVSVKGALESHFLKCGKPSAQEITNLADSLQLEKEVVRVWFCNRRQKEKR, for which the abundance fitness is -0.19 ± 0.11.

KKRTSIEVSVKGALESNFLKCPKPSAQEITNLADSLQLEKEVVRVWFCNRRQKEKR: the abundance fitness was -0.189 ± 0.16.

For the variant KKRTSIEVSVKGALESEFLKCPKPSAQEITNLADSLQLEKEVVRVWFCNRRQKEKR, the abundance fitness was -0.176 ± 0.089.

Consider KKRTSIEVSVKGALESAFLKCPKPSAQEITNLADSLQLEKEVVRVWFCNRRQKEKR, for which the abundance fitness was -0.055 ± 0.081.

As for KKRTSIEVSVKGALESGFLKCPKPSAQEITNLADSLQLEKEVVRVWFCNRRQKEKR, the abundance fitness was -0.683 ± 0.074.

Regarding KKRTSIEVSVKGALESWFLKCPKPSAQEITNLADSLQLEKEVVRVWFCNRRQKEKR, the abundance fitness was -0.048 ± 0.08.

In the case of KKRTSIEVSVKGALESVFLKCPKPSAQEITNLADSLQLEKEVVRVWFCNRRQKEKR, the abundance fitness is -0.069 ± 0.07.

On to KKRTSIEVSVKGALESYFLKCPKPSAQEITNLADSLQLEKEVVRVWFCNRRQKEKR, for which the abundance fitness came to 0.041 ± 0.11.

Turning to KKRTSIEVSVKGALESSFLKCPKPSAQEITNLADSLQLEKEVVRVWFCNRRQKEKR, the abundance fitness was -0.039 ± 0.085.

Take KKRTSIEVSVKGALESIFLKCPKPSAQEITNLADSLQLEKEVVRVWFCNRRQKEKR: the abundance fitness was -0.219 ± 0.14.

Regarding KKRTSIEVSVKGALESFFLKCPKPSAQEITNLADSLQLEKEVVRVWFCNRRQKEKR, the abundance fitness was -0.104 ± 0.15.

For KKRTSIEVSVKGALESPFLKCPKPSAQEITNLADSLQLEKEVVRVWFCNRRQKEKR, the abundance fitness was -0.807 ± 0.16.

Consider KKRTSIEVSVKGALESRFLKCPKPSAQEITNLADSLQLEKEVVRVWFCNRRQKEKR, for which the abundance fitness is -0.444 ± 0.072.

As for KKRTSIEVSVKGALESMFLKCPKPSAQEITNLADSLQLEKEVVRVWFCNRRQKEKR, the abundance fitness is -0.147 ± 0.1.

Turning to KKRTSIEVSVKGALESCFLKCPKPSAQEITNLADSLQLEKEVVRVWFCNRRQKEKR, the abundance fitness was -0.201 ± 0.11.

Take KKRTSIEVSVKGALESQFLKCPKPSAQEITNLADSLQLEKEVVRVWFCNRRQKEKR: the abundance fitness was -0.134 ± 0.12.

Consider KKRTSIEVSVKGALESLFLKCPKPSAQEITNLADSLQLEKEVVRVWFCNRRQKEKR, for which the abundance fitness is -0.188 ± 0.081.

For the variant KKRTSIEVSVKGALESTFLKCPKPSAQEITNLADSLQLEKEVVRVWFCNRRQKEKR, the abundance fitness is -0.234 ± 0.096.
